Test results reported in article PMC5095173, “Disulfide-activated protein kinase G Iα regulates cardiac diastolic relaxation and fine-tunes the Frank–Starling response” (Nature Communications, 2016).

Key:
[1] = tested on: PKGIα (analogue-sensitive C42S/M438G), cGMP-activated; assay: Chemical genetic phosphoproteomic screen, cGMP-activated PKGIα C42S/M438G versus unactivated control; format: biochemical, human PKGIα; substrates in rat heart homogenate; conditions: for log2 fold changes: Group 1 (cGMP-activated) vs Group 3 (control)
How it was run: (§1)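 Analogue-sensitive human PKGIα mutants (M438G, air-oxidized to disulfide dimer; C42S/M438G, cGMP-activated), expressed in 293-F cells, thiophosphorylate substrates in rat left-ventricle lysate (20 mg ml) using N6-alkylated ATPγS. Thiophosphopeptides are recovered by covalent capture and identified with sites by LC–MS/MS, each compared against an unactivated control.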

[2] = tested on: PKGIα (analogue-sensitive M438G), disulfide-activated; assay: Chemical genetic phosphoproteomic screen, disulfide-activated PKGIα M438G versus unactivated control; format: biochemical, human PKGIα; substrates in rat heart homogenate; conditions: for log2 fold changes: Group 2 (disulfide-activated) vs Group 3 (control)
How it was run: as §1

| Molecule | log2 fold changes [1] | log2 fold changes [2] | log2 fold change cGMP vs Control ([1]; control = PKGIα C42S/M438G) | log2 fold change Disulfide vs Control ([2]; control = PKGIα C42S/M438G) |
| --- | --- | --- | --- | --- |
| Smpx pT40 (protein, UniProt Q925F0 1-85, looked up, phosphorylated at T40) Small muscular protein: MSKQPISNVRSIQANINIPMGAFRPGAGQPPRRKESTPGTAEGAPATPEEKKPVPGMKKFPGPVVNLSEIQNVKSELKYVPKGEQ | 0.3577 | 1.906 |  |  |
| Plcg1 pS1233 (protein, UniProt P10686 2-1290, looked up, phosphorylated at S1233) 1-phosphatidylinositol …: AGVGTPCANGCGPSAPSEAEVLHLCRSLEVGTVMTLFYSKKSQRPERKTFQVKLETRQITWSRGADKIEGSIDIREIKEIRPGKTSRDFDRYQEDPAFRPDQSHCFVILYGMEFRLKTLSLQATSEDEVNMWIKGLTWLMEDTLQAATPLQIERWLRKQFYSVDRNREDRISAKDLKNMLSQVNYRVPNMRFLRERLTDFEQRSGDITYGQFAQLYRSLMYSAQKTMDLPFLETNTLRTGERPELCQVSLSEFQQFLLEYQGELWAVDRLQVQEFMLSFLRDPLREIEEPYFFLDELVTFLFSKENSVWNSQLDAVCPETMNNPLSHYWISSSHNTYLTGDQFSSESSLEAYARCLRMGCRCIELDCWDGPDGMPVIYHGHTLTTKIKFSDVLHTIKEHAFVASEYPVILSIEDHCSIAQQRNMAQHFRKVLGDTLLTKPVDIAADGLPSPNQLKRKILIKHKKLAEGSAYEEVPTSVMYSENDISNSIKNGILYLEDPVNHEWYPHYFVLTSSKIYYSEETSSDQGNEDEEEPKEASGSTELHSSEKWFHGKLGAGRDGRHIAERLLTEYCIETGAPDGSFLVRESETFVGDYTLSFWRNGKVQHCRIHSRQDAGTPKFFLTDNLVFDSLYDLITHYQQVPLRCNEFEMRLSEPVPQTNAHESKEWYHASLTRAQAEHMLMRVPRDGAFLVRKRNEPNSYAISFRAEGKIKHCRVQQEGQTVMLGNSEFDSLVDLISYYEKHPLYRKMKLRYPINEEALEKIGTAEPDYGALYEGRNPGFYVEANPMPTFKCAVKALFDYKAQREDELTFTKSAIIQNVEKQDGGWWRGDYGGKKQLWFPSNYVEEMINPAILEPEREHLDENSPLGDLLRGVLDVPACQIAIRPEGKNNRLFVFSISMPSVAQWSLDVAADSQEELQDWVKKIREVAQTADARLTEGKMMERRKKIALELSELVVYCRPVPFDEEKIGTERACYRDMSSFPETKAEKYVNKAKGKKFLQYNRLQLSRIYPKGQRLDSSNYDPLPMWICGSQLVALNFQTPDKPMQMNQALFMAGGHCGYVLQPSTMRDEAFDPFDKSSLRGLEPCVICIEVLGARHLPKNGRGIVCPFVEIEVAGAEYDSTKQKTEFVVDNGLNPVWPAKPFHFQISNPEFAFLRFVVYEEDMFSDQNFLAQATFPVKGLKTGYRAVPLKNNYSEDLELASLLIKIDIFPAKENGDLSPFSGTSLRERASDASSQLFHVRAREGSFEARYQQPFEDFRISQEHLADHFDSRERRAPRRTRVNGDNRL |  |  | 4.5 | 1.819 |
| Hadhb pS198 (protein, UniProt Q60587 35-475, looked up, phosphorylated at S198) Trifunctional enzyme subunit …: SAPAVQTKSKKTLAKPNLKNIVVVEGVRIPFLLSGTSYKDLMPHDLARAALSGLLYRTNIPKDVVDYIIFGTVIQEVKTSNVAREAALGAGFSDKTPAHTVTMACISSNQAMTTAVGLIASGQCDVVVAGGVELMSDVPIRHSRNMRKMMLDLNKAKTLAQRLSLLTKFRLNFLSPELPAVAEFSTNETMGHSADRLAAAFAVSRMEQDKYALRSHSLAKKAQDEGHLSDIVPFKVPGKDTVSKDNGIRPSSLEQMAKLKPAFIKPYGTVTAANSSFLTDGASAMLIMSEDRALAMGYKPKAYLRDFIYVSQDPKDQLLLGPTYATPKVLEKAGLTMNDIDAFEFHEAFSGQILANFKAMDSDWFAQNYMGRKTKVGAPPLEKFNIWGGSLSLGHPFGATGCRLVMAAANRLRKDGGQYALVAACAAGGQGHAMIVEAYPK | 3.435 | 0.04396 |  |  |
| Acadvl pT513 (protein, UniProt P45953 41-655, looked up, phosphorylated at T513) Very long-chain specific …: ASEATQAVLEKPETLSSDASTREKPARAESKSFAVGMFKGQLTTDQVFPYPSVLNEGQTQFLKELVGPVARFFEEVNDPAKNDSLEKVEEDTLQGLKELGAFGLQVPSELGGLGLSNTQYARLAEIVGMHDLGVSVTLGAHQSIGFKGILLYGTKAQKEKYLPRVASGQALAAFCLTEPSSGSDVASIRSSAVPSPCGKYYTLNGSKIWISNGGLADIFTVFAKTPIKDAATGAVKEKITAFVVERSFGGVTHGLPEKKMGIKASNTSEVYFDGVKVPAENVLGEVGDGFKVAVNILNNGRFGMAATLAGTMKAIIAKAVDHATNRTQFGDKIHNFGVIQEKLARMAILQYVTESMAYMLSANMDQGFKDFQIEAAISKIFGSEAAWKVTDECIQIMGGMGFMKEPGVERVLRDIRIFRIFEGTNDILRLFVALQGCMDKGKELTGLGNALKNPLGNVGLLIGEASKQLRRRTGIGSGLSLSGIVHPELSRSGELAVQALEQFATVVEAKLMKHKKGIVNEQFLLQRLADGAIDLYAMVVVLSRASRSLSEGYPTAQHEKMLCDSWCIEAATRIRENMASLQSNPQQQELFRNFRSISKAMVENGGLVTSNPLRV | 3.595 | -0.899 |  |  |
| Hdlbp pS74 (protein, UniProt Q9Z1A6 2-1268, looked up, phosphorylated at S74) Vigilin: SSVAVLTQESFAEHRSGLVPQQIIVATLNSEEESDPPTYKDAFPPLPEKAACLESAQEPAGAWSNKIRPIKASVITQVFHVPLEERKYKDMNQFGEGEQAKICLEIMQRTGAHLELSLAKDQGLSIMVSGKLDAVMKARKDIVARLQTQASATVPIPKEHHRFVIGKNGEKLQDLELKTATKIQIPRPDDPSNQIKITGTKEGIEKARHEVLLISAEQDKRAVKRLEVEKAFHPFIAGPYNRLVGEIMQETGTRINIPPPSVNRTEIVFTGEKEQLAQAVARIKKIYEEKKKKTTTIAVEVKKSQHKYVIGPKGNSLQEILERTGVSVEIPPSDSISETVILRGEPEKLGQALTEVYAKANSFTVSSVSAPSWLHRFIIGKKGQNLAKITHQMPKVHIEFTEGEDKITLEGPTEDVNVAQEQIEGMVKDLINRMDYVEINIDHKFHRHLIGKSGANINRIKDQYKVSVRIPPDSEKSNLIRIEGDPQGVQQAKRELLELASRMENERTKDLIIEQRFHRTIIGQKGERIREIRDKFPEVIINFPDPAQKSEIVQLRGPKNEVEKCTKYMQKMVADLVENSYSISVPIFKQFHKNIIGKGGANIKKIREESNTKIDLPAENSNSETIVITGKRANCEAARSRILSIQKDLANIAEVEVSIPAKLHNSLIGTKGRLIRSIMEECGGVHIHFPVEGSGSDTVVIRGPSSDVEKAKKQLLHLAEEKQTKSFTVDIRAKPEYHKFLIGKGGGKIRKVRDSTGARIIFPAAEDKDQDLITIIGKEDAVREAQKELEALIQNLDNVVEDYMLVDPRHHRHFVIRRGQVLREIAEEYGGVMVSFPRSGTQSDKVTLKGAKDCVEAAKKRIQEIIEDLEAQVTLECAIPQKFHRSVMGPKGSRIQQITRDYNVQIKFPDREENPVHSVEPSIQENGDEAGEGREAKETDPGSPRRCDIIVISGRKEKCEAAKEALEALVPVTIEVEVPFDLHRYIIGQKGSGIRKMMDEFEVNIHVPAPELQSHTIAITGLAANLDRAKAGLLDRVKELQAEQEDRALRSFKLSVTVDPKYHPKIIGGKGAVITQIRLEHDVNIQFPDKDDGNQPQDQITITGYEKNTEAARDAILKIVGELEQMVSEDVPLDHRVHARIIGARGKAIRKIMDEFKVDIRFPQSGAPDPNCVTVTGLPENVEEAIDHILNLEEEYLADVVDSEALQVYMKPPAHEESKAPSKGFVVRDAPWTSNSSEKAPDMSSSEEIPTFGAQVAPKTLPWGPKR | 3.955 | 0.4352 |  |  |
